From publication doi:10.1101/2020.06.30.178921 (bioRxiv, 2020)

Molecular target: CH848TF gp120 monomeric protein (HIV-1 CH848 transmitted-founder …, UniProt A0A1W6IPB2, strain, N-linked glycans)
Assay: ELISA

- binding result: binds
B1: 2G12 IgG (antibody, V domains shown)
VH: EVQLVESGGGLVKAGGSLILSCGVSNFRISAHTMNWVRRVPGGGLEWVASISTSSTYRDYADAVKGRFTVSRDDLEDFVYLQMHKMRVEDTAIYYCARKGSDRLSDNDPFDAWGPGTVVTVSP
VL: DVVMTQSPSTLSASVGDTITITCRASQSIETWLAWYQQKPGKAPKLLIYKASTLKTGVPSRFSGSGSGTEFTLTISGLQFDDFATYHCQHYAGYSATFGQGTRVEIK
